Test results taken from PMC4749977, “Alp7/TACC-Alp14/TOG generates long-lived, fast-growing MTs by an unconventional mechanism” (Scientific Reports, 2016).

B1: S. pombe single isoform (α1β) tubulin (complex)
chain 1: MREVISVHVGQAGVQIGNACWELYCLEHGIGPDGFPTENSEVHKNNSYLNDGFGTFFSETGQGKFVPRSIYVDLEPNVIDQVRTGPYKDLFHPEQMVTGKEDASNNYARGHYTVGKEMIDSVLERIRRMADNCSGLQGFLVFHSFGGGTGSGLGALLLERLNMEYGKKSNLQFSVYPAPQVSTSVVEPYNSVLTTHATLDNSDCTFMVDNEACYDICRRNLDIERPTYENLNRLIAQVVSSITASLRFAGSLNVDLNEFQTNLVPYPRIHFPLVTYSPIVSAAKAFHESNSVQEITNQCFEPYNQMVKCDPRTGRYMATCLLYRGDVIPRDVQAAVTSIKSRRTIQFVDWCPTGFKIGICYEPPQHVPGSGIAKVNRAVCMLSNTTSIAEAWSRLDHKFDLMYSKRAFVHWYVGEGMEEGEFSEAREDLAALERDYEEVGQDSMDNEMYEADEEY
chain 2: MREIVHIQAGQCGNQVGAAFWSTIADEHGLDSAGIYHGTSEAQHERLNVYFNEAAGGKYVPRAVLVDLEPGTMDAVKSGKFGNLFRPDNIIYGQSGAGNIWAKGHYTEGAELADAVLDVVRREAEACDALQGFQLTHSLGGGTGSGMGTLLLSKIREEYPDRMMATFSVAPAPKSSDTVVEPYNATLSMHQLVENSDETFCIDNEALSSIFANTLKIKSPSYDDLNHLVSAVMAGVTTSFRFPGELNSDLRKLAVNMVPFPRLHFFMVGFAPLAAIGSSSFQAVSVPELTQQMFDANNMMVAADPRHGRYLTVAALFRGKVSMKEVDEQIRSVQTKNSAYFVEWIPDNVLKAVCSVPPKDLKMSATFIGNSTSIQEIFRRLGDQFSAMFRRKAFLHWYTGEGMDEMEFTEAESNMNDLVSEYQQYQEAGIDEGDEDYEIEEEKEPLEY
notes: alpha-1 tubulin (α1) of S. pombe, from strain mmsp174 (atb2 replaced by nda2+); beta tubulin (β) of S. pombe, from strain mmsp174; Stands both as the free GTP-tubulin heterodimer and as the growing plus end of the microtubule polymerised from it; which of the two is meant is told in the assay's format and the quantity; also called GTP-tubulin; T (tubulin dimer); source: purified from S. pombe …
B2: Alp14 (full length, S. pombe TOG-family microtubule polymerase) (enzyme, UniProt O94534 1-809, looked up)
chain: MSQDQEEDYSKLPLESRIVHKVWKVRLSAYEECSKSFSLSADGSDNCFELWNNQSELWKSVLTDSNVAAQEAGTAAFVAYCRFSDPSHLLKAREISVLSISEKCLTSPRAGTRENALEALMLLVEADSAAPVIESIIPSLSARSPKVIASNVAAIASLVEQFGAKVIPSKMIIPHISNLFGHADKNVRKEASRLTVNIYRWTGDPLKDLLFKDLRPVQTKELESLFAELPTEPPKQTRFLKSQQPTSEPNVETQVEEQPALENEESEPEPSDDQFDLVEEVDVLPNVDPNLETLMASSKWKDRKEALDKLLPVLSQPKIKDNDFFNLVAILTKSVSKDANIMVVINAAHCIQAMAKGLRSNFSKYASTSINALLERSKEKKANVIESLSSAMDAVLATSSLDDLAELIASFAGNKNPQIKSSCFSLFSRSFSNMTSLPSKFTVDTCAKACVPGVSDTFEPVRSAAAEALGVLMKLVGERAINQYLSPLDDIRKSKIRSFYETATVKAKAPTKKSKVKPSKQEESKVVVPSNAKAVKKSVVPSSPVVPSPRKATNKSLSMDVSKGNAFENGPLLPRPTTRPVSRGLSRGTSSSLQQKVKASTPLNSGALNETVQNLKNMELDDPAPQPAKHSRVDRYEHPKVLEDNDSTISSLESLKRENEELREQLKVEHEENISMQKQLSELKGELNTLRSARKASPIGDRKPAFMRRANTDFLELSTSPSFQRSVREFEPTRPKLYSSIDVNQRSPLASAKTNGNFTFHAELPRSPFSSRANNINPDWTKAIDLAAKLKQKITEMKQTDQRHQGLIH
notes: Alp14, S. pombe, full length; gene PCR-amplified from wild type genomic S. pombe DNA; also called Alp14/TOG
B3: Alp14, full length, with a C-terminal his or Avi tag (natural protein, S. pombe, UniProt O94534 1-809, looked up)
chain: B2 chain
notes: Alp14, TOG-family microtubule polymerase of S. pombe, full length; gene PCR-amplified from wild-type genomic S. pombe DNA; also called Alp14/TOG; full length Alp14
B4: Alp7, full length, with an N-terminal avi-tag (natural protein, S. pombe, UniProt Q9URY2 1-474, looked up)
chain: MSDIVSSSTDYSRRSPSSSSIGTNETDHTGFHEKRQGASSESLIPPAQRSSEESMPAPKLFPKLTSKPNPQLNLKDTLNKRVSDRLQALELNKSFDFSGTPRPMHPISHPLSQHKTPEFKHRKRNVESILTPKNPSLFSSSNAASQRGSLNTAPSNFAYSHSSSLQTSASSRPPVLSNGSFPRQTNTAPLNPPVHLKDNIRNSATPSTSQADIPTQYPINSTQKQQAKYEAEIEGYKAKLAGTYHEISVLQNTIVNVSGQLIAVNDQLQQLRSGKASTSPSTKDTNMRLVEGHNEETLALQRGKYTQEEVDKLIQERMEKVAEDLHAQYSAKHTQKINAFKANYARKYEATIQELQNQIGTAPNAPKISNSNWEEERRALKADNQTLQKQLEKAIQERQDMSDFLNNFKADMAKSDKLLMQQQSQQTGDLETLRLQLQALQEELRVEREERQQLIQMSEDLVIAMDQLNLEQKS
modifications: biotin on the AviTag (BirA ligase co-expressed to ensure biotinylation)
notes: Alp7 (Mia1p), TACC-family protein of S. pombe, full length; gene PCR-amplified from wild-type genomic S. pombe DNA; also called Alp7/TACC; Mia1p; source: Sf9 insect cells (baculovirus, BirA ligase co-expressed), purified on monomeric avidin agarose

Experiments:
[1] = biological target: S. pombe dual-isoform (α1β + α2β) tubulin (S. pombe) (UniProt P04688); assay: DIC video microscopy of microtubule growth; addition of GTP-tubulin to plus and minus ends of MTs nucleated by axoneme fragments; growth rate against tubulin concentration, linear regression, apparent rate constants; 100 mM K-PIPES, 1 mM MgSO4, 2 mM EGTA, 1 mM DTT pH 6.9, 1 mM GTP, no glycerol, 25 °C
[2] = biological target: the molecule itself; assay: microtubule growth rates (VE-DIC video microscopy) against tubulin concentration, fit of a bimolecular reaction; GTP-tubulin dimer adding to and leaving the microtubule plus end; single isoform S. pombe tubulin in PEM at 25 °C, without Alp14; apparent rate constants per microtubule end in dimers
[3] = biological target: B1; assay: microtubule growth rates (dark-field microscopy) with Alp14, fit of a kinetic model; Alp14-facilitated pathway T + M + E = TE + M = E + (M+1); Alp14 resident at the plus end of S. pombe α1β microtubules grown from GMPCPP seeds; 6 µM or 0.5 µM tubulin, nanomolar Alp14, PEM100, 25 °C; constants are parameters fitted to or constrained by the growth data, steady state assumed; conditions: both partners purified
[4] = biological target: B1; assay: as above; conditions: both partners purified; remark: listed apart in the source
[5] = biological target: the molecule itself; assay: glycerol gradient centrifugation; 5-40% glycerol gradient of purified Alp14, Alp7 and tubulin, alone or mixed; tubulin as GTP-tubulin where stated; fractions on SDS-PAGE with Coomassie staining

“S. pombe dual-isoform (α1β + α2β) tubulin (from UniProt P04688 1-455; P04689 1-449; P05219 1-448) (complex)” was tested. Which Kd = koff/kon (critical concentration), minus end [1] did it give?
Its Kd = koff/kon (critical concentration), minus end is 1900 nM.

And the Kd = koff/kon (critical concentration), plus end [1]?
Its Kd = koff/kon (critical concentration), plus end is 2000 nM.

And the koff, minus end [1]?
Its koff, minus end is 3.1 nm/s.

What about the koff, plus end [1] of the same molecule?
The koff, plus end was 9.3 nm/s.

What about the kon, minus end (nm s^−1 μM^−1) [1] of the same molecule?
The kon, minus end (nm s^−1 μM^−1) was 1.6.

And the kon, plus end (nm s^−1 μM^−1) [1]?
The kon, plus end (nm s^−1 μM^−1) was 4.7.

Which koff [2] does the source give for B1 here?
The koff was 6.6 s⁻¹.

And the kon [2]?
Its kon is 5.5e+06 M⁻¹ s⁻¹.

B2 was tested. Which Kd [3] did it give?
The Kd was 6 nM.

What about the koff [3] of the same molecule?
The koff was 1 to 15 s⁻¹.

And the kon [3]?
Its kon is over 4e+07 M⁻¹ s⁻¹.

What about the Kd [4] of the same molecule?
The Kd was over 5 nM.

Does B3 bind [5]?
Result: binds

Does B4 bind [5]?
Result: binds
